{
  "source": "patent US20220306707A1",
  "about": "(INDUSTRY UNIVERSITY COOPERATION FOUNDATION HANYANG …, published 2022)",
  "key": {"[1]": {"biological_target": "endogenous mouse NLRP3 (bone marrow-derived macrophages and splenocytes of C57BL/6 mice) (mouse, UniProt Q8R4B8 1-1033)", "sequence (Q8R4B8 whole entry)": "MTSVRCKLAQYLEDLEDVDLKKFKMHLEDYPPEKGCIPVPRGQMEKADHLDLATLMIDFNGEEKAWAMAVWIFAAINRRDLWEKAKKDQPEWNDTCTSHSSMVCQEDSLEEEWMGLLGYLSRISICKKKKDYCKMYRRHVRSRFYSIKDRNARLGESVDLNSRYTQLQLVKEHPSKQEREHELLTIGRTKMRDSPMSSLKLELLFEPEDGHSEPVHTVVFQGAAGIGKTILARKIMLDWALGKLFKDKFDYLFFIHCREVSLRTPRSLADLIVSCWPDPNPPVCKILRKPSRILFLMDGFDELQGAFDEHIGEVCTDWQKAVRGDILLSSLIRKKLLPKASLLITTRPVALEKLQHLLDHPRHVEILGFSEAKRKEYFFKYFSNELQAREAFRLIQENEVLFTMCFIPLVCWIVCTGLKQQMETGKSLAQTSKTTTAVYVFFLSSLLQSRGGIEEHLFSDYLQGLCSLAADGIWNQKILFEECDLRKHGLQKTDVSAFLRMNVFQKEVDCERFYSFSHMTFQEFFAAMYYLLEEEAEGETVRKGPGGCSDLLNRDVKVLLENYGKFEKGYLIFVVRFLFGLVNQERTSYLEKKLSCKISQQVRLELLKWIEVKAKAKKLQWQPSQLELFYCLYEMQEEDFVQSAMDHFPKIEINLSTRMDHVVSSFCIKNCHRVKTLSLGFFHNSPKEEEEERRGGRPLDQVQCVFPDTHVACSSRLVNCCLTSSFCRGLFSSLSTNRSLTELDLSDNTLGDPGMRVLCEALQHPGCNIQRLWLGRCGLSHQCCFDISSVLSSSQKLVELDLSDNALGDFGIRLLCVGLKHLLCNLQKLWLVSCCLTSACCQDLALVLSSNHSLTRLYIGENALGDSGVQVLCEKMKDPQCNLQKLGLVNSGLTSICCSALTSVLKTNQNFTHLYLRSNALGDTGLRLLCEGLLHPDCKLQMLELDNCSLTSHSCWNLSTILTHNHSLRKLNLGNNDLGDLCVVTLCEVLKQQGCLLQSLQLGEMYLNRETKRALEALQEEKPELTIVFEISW", "assay": "immunoprecipitation from LPS- and ATP-treated BMDMs (FIG. 4D)"}, "[2]": {"biological_target": "T1, Flag-NLRP3 wild-type (WT), full-length, transfected into 293T cells (UniProt Q96P20 1-1036)", "T1 construct": "also called wild-type (WT) NLRP3; not shown: Flag tag", "T1 sequence (Q96P20 whole entry)": "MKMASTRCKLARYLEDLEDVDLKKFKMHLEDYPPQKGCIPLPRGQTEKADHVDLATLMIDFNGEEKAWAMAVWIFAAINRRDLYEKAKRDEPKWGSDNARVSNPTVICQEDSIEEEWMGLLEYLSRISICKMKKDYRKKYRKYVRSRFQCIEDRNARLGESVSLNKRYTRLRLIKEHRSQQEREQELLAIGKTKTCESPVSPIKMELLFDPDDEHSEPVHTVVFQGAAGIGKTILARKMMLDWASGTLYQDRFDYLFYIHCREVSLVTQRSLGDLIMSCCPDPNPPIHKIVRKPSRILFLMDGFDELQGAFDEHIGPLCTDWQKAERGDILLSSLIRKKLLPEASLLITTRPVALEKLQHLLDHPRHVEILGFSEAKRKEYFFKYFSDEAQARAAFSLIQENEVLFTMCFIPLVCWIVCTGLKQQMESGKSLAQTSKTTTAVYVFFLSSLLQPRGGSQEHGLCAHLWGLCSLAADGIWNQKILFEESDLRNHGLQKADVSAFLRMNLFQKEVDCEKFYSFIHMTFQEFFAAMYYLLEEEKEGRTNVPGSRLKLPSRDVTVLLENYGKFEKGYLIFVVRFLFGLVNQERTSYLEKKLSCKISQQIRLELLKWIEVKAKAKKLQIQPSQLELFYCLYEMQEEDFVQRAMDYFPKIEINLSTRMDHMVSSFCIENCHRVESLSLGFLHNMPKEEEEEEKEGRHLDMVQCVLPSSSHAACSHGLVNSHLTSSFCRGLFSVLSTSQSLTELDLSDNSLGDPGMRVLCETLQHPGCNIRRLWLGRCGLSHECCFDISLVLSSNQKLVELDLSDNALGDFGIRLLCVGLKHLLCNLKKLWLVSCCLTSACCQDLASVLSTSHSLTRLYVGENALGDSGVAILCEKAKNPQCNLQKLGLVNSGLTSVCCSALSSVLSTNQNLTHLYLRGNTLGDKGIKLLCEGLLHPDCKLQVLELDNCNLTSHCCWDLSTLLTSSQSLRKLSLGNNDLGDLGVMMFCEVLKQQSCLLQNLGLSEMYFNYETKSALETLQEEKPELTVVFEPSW", "assay": "GST pulldown in transfected 293T cells (FIG. 3A)"}},
  "data": [
    {"binder": "recombinant GRA9C (residues 195-288) with N-terminal 6x His tag, purified from E. coli (other, also called rGRA9C; 6xHis-GRA9C) HHHHHHMSVDPQCIMTREVVAQKLAGWTDNTHTATAGTPKKLLISFPSPDHIKEMVKEGYLPDNALERVLAGDFEGFSRTQMCLVSGRNRTECAFAEGQE", "values": [
      {"measurement": "binding result", "setting": "[1]", "result": "binds"}
    ]},
    {"binder": "recombinant GRA9C^Q200L (residues 195-288, Q200L) with N-terminal 6x His tag, purified from E. coli (other, also called rGRA9C^Q200L) HHHHHHMSVDPLCIMTREVVAQKLAGWTDNTHTATAGTPKKLLISFPSPDHIKEMVKEGYLPDNALERVLAGDFEGFSRTQMCLVSGRNRTECAFAEGQE", "values": [
      {"measurement": "binding result", "setting": "[1]", "result": "no binding"}
    ]},
    {"binder": "GST-GRA9 C-terminal domain containing the Q200L mutation (other, also called GST-GRA9 C^Q200L; GST-GRA9 containing the Q200L mutation at the C-terminus) MSVDPLCIMTREVVAQKLAGWTDNTHTATAGTPKKLLISFPSPDHIKEMVKEGYLPDNALERVLAGDFEGFSRTQMCLVSGRNRTECAFAEGQE", "values": [
      {"measurement": "binding result", "setting": "[2]", "result": "no binding"}
    ]}
  ]
}
